Reference: patent US20250381289A1 (Genmab, published 2025)
Blank lines part the entries; values can stand above or below the binder they belong to.

What was measured:
[1] = molecular target: T1, cMET on EGFR and cMET co-expressed tumor cell lines (UniProt P08581 25-1390, limits assumed); experiment: flow cytometry, EBC-1 cells (co-express EGFR and cMET; both arms contribute)
T1 construct: whole, on cells
Experimental: EBC-1 was cultured with DMEM medium (Gibco, Cat #C11995500BT) containing 10% FBS. […] Each antibody was incubated with different cell lines (1×10⁵ cells/well) for 30 min in 0.2 mL FACS buffer (1×PBS with 0.1% BSA) at 4° C. After wash, cells were incubated with 100 μL PE-conjugated anti human Fc (Abcam, Ab98596, 1:500 dilution) for 30 min at 4° C. After wash with PBS, cells were resuspended in FACS buffer and analyzed by flow cytometer (Beckman, CytoFLEX).

[2] = molecular target: T1, cMET on EGFR and cMET co-expressed …; experiment: flow cytometry, MKN-45 cells
[3] = molecular target: T2, EGFR on EGFR and cMET co-expressed tumor cell lines (UniProt P00533 25-1210, limits assumed); experiment: flow cytometry, EBC-1 cells (co-express EGFR and cMET; both arms contribute)
T2 construct: whole, on cells

[4] = molecular target: T1, cMET on EGFR and cMET co-expressed …; experiment: as above; remark: listed apart in the source
[5] = molecular target: T2, EGFR on EGFR and cMET co-expressed …; experiment: flow cytometry, SNU-5 cells (co-express EGFR and cMET; both arms contribute)
[6] = molecular target: T1, cMET on EGFR and cMET co-expressed …; experiment: as above
[7] = molecular target: T2, EGFR on EGFR and cMET co-expressed …; experiment: flow cytometry on CAL-27 cells (co-express EGFR and cMET), PE anti-human Fc; signal of the whole bispecific, not resolved by arm
[8] = molecular target: T1, cMET on EGFR and cMET co-expressed …; experiment: as above
[9] = molecular target: T2, EGFR on EGFR and cMET co-expressed …; experiment: flow cytometry on SNU-5 cells (co-express EGFR and cMET), PE anti-human Fc; signal of the whole bispecific, not resolved by arm
Experimental: (§1) EBC-1, ACHN and CAL-27 were cultured with DMEM medium (Gibco, Cat #C11995500BT) containing 10% FBS. […] Each antibody was incubated with different cell lines (1×10⁵ cells per well) for 30 mins in 0.2 mL FACS buffer (1×PBS with 0.1% BSA) at 4° C. After wash, cells were incubated with 100 μL PE-conjugated anti human Fc (Abcam, Ab98596, 1:500 dilution) for 30 mins at 4° C. After wash with PBS, cells were resuspended in FACS buffer and analyzed by flow cytometer (Beckman, CytoFLEX).

[10] = molecular target: T1, cMET on EGFR and cMET co-expressed …; experiment: as above
Experimental: as §1

[11] = molecular target: T2, EGFR on EGFR and cMET co-expressed …; experiment: flow cytometry on EBC-1 cells (co-express EGFR and cMET), PE anti-human Fc; signal of the whole bispecific, not resolved by arm
Experimental: as §1

[12] = molecular target: T1, cMET on EGFR and cMET co-expressed …; experiment: as above
Experimental: as §1

T1 sequence (P08581 25-1390 limits assumed): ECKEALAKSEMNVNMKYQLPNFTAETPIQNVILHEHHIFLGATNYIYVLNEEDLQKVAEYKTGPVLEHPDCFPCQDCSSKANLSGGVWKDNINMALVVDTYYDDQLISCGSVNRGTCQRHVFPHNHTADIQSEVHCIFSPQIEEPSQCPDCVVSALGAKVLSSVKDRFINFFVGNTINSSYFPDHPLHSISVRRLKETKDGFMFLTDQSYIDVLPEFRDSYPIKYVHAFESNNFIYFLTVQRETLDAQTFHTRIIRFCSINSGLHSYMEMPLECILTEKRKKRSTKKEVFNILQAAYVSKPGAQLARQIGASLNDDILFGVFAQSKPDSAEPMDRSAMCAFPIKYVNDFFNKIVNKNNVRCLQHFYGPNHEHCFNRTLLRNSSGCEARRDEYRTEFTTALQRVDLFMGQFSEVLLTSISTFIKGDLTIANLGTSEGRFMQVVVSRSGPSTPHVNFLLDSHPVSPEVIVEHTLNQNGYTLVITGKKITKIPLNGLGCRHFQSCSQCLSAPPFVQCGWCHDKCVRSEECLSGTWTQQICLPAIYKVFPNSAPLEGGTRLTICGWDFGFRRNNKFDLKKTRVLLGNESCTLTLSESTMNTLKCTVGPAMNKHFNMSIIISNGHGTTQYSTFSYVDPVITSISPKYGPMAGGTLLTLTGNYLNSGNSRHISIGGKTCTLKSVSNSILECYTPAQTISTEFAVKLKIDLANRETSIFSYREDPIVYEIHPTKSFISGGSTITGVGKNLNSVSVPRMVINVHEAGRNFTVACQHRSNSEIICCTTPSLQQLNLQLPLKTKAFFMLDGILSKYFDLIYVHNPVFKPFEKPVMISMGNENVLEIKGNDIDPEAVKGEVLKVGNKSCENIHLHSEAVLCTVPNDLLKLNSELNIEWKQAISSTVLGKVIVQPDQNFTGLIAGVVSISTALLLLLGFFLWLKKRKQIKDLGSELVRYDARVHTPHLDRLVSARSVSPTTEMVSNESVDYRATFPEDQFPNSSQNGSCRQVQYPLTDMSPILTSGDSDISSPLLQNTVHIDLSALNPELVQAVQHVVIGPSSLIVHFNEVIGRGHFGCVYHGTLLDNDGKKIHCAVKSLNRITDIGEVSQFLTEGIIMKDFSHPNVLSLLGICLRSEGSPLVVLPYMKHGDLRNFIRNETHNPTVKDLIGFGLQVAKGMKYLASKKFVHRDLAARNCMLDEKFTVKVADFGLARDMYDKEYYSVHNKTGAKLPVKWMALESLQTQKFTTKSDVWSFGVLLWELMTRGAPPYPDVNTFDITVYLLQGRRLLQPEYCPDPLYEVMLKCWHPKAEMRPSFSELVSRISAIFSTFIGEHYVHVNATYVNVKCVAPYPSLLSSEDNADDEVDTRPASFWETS

EC50 (read off the curve) [1]: ~2 nM
B1: Bsab 12 (bispecific antibody, human IgG1, kappa, L234A L235A)
chain 1: not shown
chain 2: DIQMTQSPSSLSASVGDRVTITCKSSQSLLYTSSQKNYLAWYQQKPGKAPKLLIYWASTRESGVPSRFSGSGSGTDFTLTISSLQPEDFATYYCQQYYAYPWTFGQGTKVEIKRTVAAPSVFIFPPSDEQLKSGTASVVCLLNNFYPREAKVQWKVDNALQSGNSQESVTEQDSKDSTYSLSSTLTLSKADYEKHKVYACEVTHQGLSSPVTKSFNRGECGGGGSGGGGSGGGGSGGGGSGGGGSGGGGSGGGGSGGGGSEVQLVESGGGLVQPGGSLRLSCAASGYTFTSYWLHWVRQAPGKGLEWVGMIDPSNSDTRFNPNFKDRFTISADTSKNTAYLQMNSLRAEDTAVYYCATYRSYVTPLDYWGQGTLVTVSSASTKGPSVFPLAPSSKSTSGGTAALGCLVKDYFPEPVTVSWNSGALTSGVHTFPAVLQSSGLYSLSSVVTVPSSSLGTQTYICNVNHKPSNTKVDKKVEPKSCDKTHTCPPCPAPEAAGGPSVFLFPPKPKDTLMISRTPEVTCVVVDVSHEDPEVKFNWYVDGVEVHNAKTKPREEQYNSTYRVVSVLTVLHQDWLNGKEYKCKVSNKALPAPIEKTISKAKGQPREPQVYTLPPCREEMTKNQVSLSCAVKGFYPSDIAVEWESNGQPENNYKTTPPVLDSDGSFFLVSKLTVDKSRWQQGNVFSCSVMHEALHNHYTQKSLSLSPGK
notes: 1+1 scFab knob-in-hole format; also called Basb 12

binding result [2]: binds
B2: Nova-5097 (antibody, V domains shown)
VH: QVQLVQSGAEVKKPGSSVKVSCKASGGTFSSYAISWVRQAPGQGLEWMGGIDPFGTANYAQKFQGRVTITADESTSTAYMELSSLRSEDTAVYYCARVYQDVWGQGTLVTVSS
VL: DIVMTQSPDSLAVSLGERATINCRSSQSILYGINNNFLGWYQQKPGQPPKLLIYWASTRESGVPDRFSGSGSGTDFTLTISSLQAEDVAVYYCQQYAFGWTFGQGTKVEIK
notes: Parent cMET mAb

binding result [2]: binds
B3: Nova-5098 (antibody, V domains shown)
VH: QVQLVQSGAEVKKPGSSVKVSCKASGGTFSSYAISWVRQAPGQGLEWMGGIDPFGTANYAQKFQGRVTITADESTSTAYMELSSLRSEDTAVYYCARVYQDVWGQGTLVTVSS
VL: DIVMTQSPDSLAVSLGERATINCRSSQSILYGINNNFLGWYQQKPGQPPKLLIYWASTRESGVPDRFSGSGSGTDFTLTISSLQAEDVAVYYCLQYSDEPWTFGQGTKVEIK
notes: Parent cMET mAb

binding result [2]: binds
B4: Nova-5185 (antibody, V domains shown)
VH: QVQLVQSGAEVKKPGSSVKVSCKASGGTFSSYAISWVRQAPGQGLEWMGGIDPIMGTEYAQKFQGRVTITADESTSTAYMELSSLRSEDTAVYYCARVYQDVWGQGTLVTVSS
VL: DIVMTQSPDSLAVSLGERATINCRSSQSILYGINNNFLGWYQQKPGQPPKLLIYWASTRESGVPDRFSGSGSGTDFTLTISSLQAEDVAVYYCQQYAYEPNTFGQGTKVEIK
notes: Parent cMET mAb

EC50 (read off the curve) [3]: ~0.9 nM
EC50 (read off the curve) [4]: ~0.9 nM
EC50 (read off the curve) [5]: ~2 nM
EC50 (read off the curve) [6]: ~2 nM
B5: AZD9592 (bispecific antibody, human IgG1, kappa, lambda)
anti EGFR heavy chain: QVQLVQSGAEVKKPGSSVKVSCKASGGTFSDNDFSWVRQAPGQGLEWMGAIVAVFRTETYAQKFQDRVKITADISTRTTYMELSSLRSEDTAVYYCARRLMSAISGPGAPLLMWGQGTLVTVSSASTKGPSVCPLAPSSKSTSGGTAALGCLVKDYFPEPVTVSWNSGALTSGVHTFPAVLQSSGLYSLSSVVTVPSSSLGTQTYICNVNHKPSNTKVDKRVEPKSVDKTHTCPPCPAPEFEGGPSVFLFPPKPKDTLMISRTPEVTCVVVDVSHEDPEVKFNWYVDGVEVHNAKTKPREEQYNSTYRVVSVLTVLHQDWLNGKEYKCKVSNKALPASIEKTISKAKGQPREPQVYTLPPCREEMTKNQVSLWCLVKGFYPSDIAVEWESNGQPENNYKTTPPVLDSDGSFFLYSKLTVDKSRWQQGNVFSCSVMHEALHNHYTQKSLSLSPGK
anti EGFR light chain: QSALTQPRSVSGSPGQSVTISCTGTSSDVGGYNYVSWYQQHPGKAPKLMIYDVSKRPSGVPDRFSGSKSGNTASLTISGLQAEDEADYYCSSYTSSDTLEIFGGGTKLTVLGQPKAAPSVTLFPPCSEELQANKATLVCLISDFYPGAVTVAWKADSSPVKAGVETTTPSKQSNNKYAASSYLSLTPEQWKSHRSYSCQVTHEGSTVEKTVAPTEVS
anti cMET heavy chain: QVQLVQSGAEVKKPGASVKVSCKASGYTFTDYYIHWVRQATGQGLEWMGWMNPNSGNTGYAQKFQGRVTMTRDTSISTAYMELSSLRSEDTAVYYCARGQGYTHSWGQGTMVTVSSASTKGPSVFPLAPSSKSTSGGTAALGCLVKDYFPEPVTVSWNSGALTSGVHTFPAVLQSSGLYSLSSVVTVPSSSLGTQTYICNVNHKPSNTKVDKRVEPKSCDKTHTCPPCPAPEFEGGPSVFLFPPKPKDTLMISRTPEVTCVVVDVSHEDPEVKFNWYVDGVEVHNAKTKPREEQYNSTYRVVSVLTVLHQDWLNGKEYKCKVSNKALPASIEKTISKAKGQPREPQVCTLPPSREEMTKNQVSLSCAVKGFYPSDIAVEWESNGQPENNYKTTPPVLDSDGSFFLVSKLTVDKSRWQQGNVFSCSVMHEALHNHYTQKSLSLSPGK
anti cMET light chain: DIQMTQSPSTLSASVGDRVTITCRASEGIYHWLAWYQQKPGKAPKLLIYKASSLASGVPSRFSGSGSGTEFTLTISSLQPDDFATYYCQQYSNYPPTFGGGTKLEIKRTVAAPSVFIFPPSDEQLKSGTASVVCLLNNFYPREAKVQWKVDNALQSGNSQESVTEQDSKDSTYSLSSTLTLSKADYEKHKVYACEVTHQGLSSPVTKSFNRGEC

EC50 (read off the curve) [7]: ~9 nM
EC50 (read off the curve) [8]: ~9 nM
EC50 (read off the curve) [9]: ~4 nM
EC50 (read off the curve) [10]: ~4 nM
EC50 (read off the curve) [11]: ~2 nM
EC50 (read off the curve) [12]: ~2 nM
B6: AZD9592-Ab (bispecific antibody, human IgG1, kappa, lambda)
anti-EGFR heavy chain: QVQLVQSGAEVKKPGSSVKVSCKASGGTFSDNDFSWVRQAPGQGLEWMGAIVAVFRTETYAQKFQDRVKITADISTRTTYMELSSLRSEDTAVYYCARRLMSAISGPGAPLLMWGQGTLVTVSSASTKGPSVCPLAPSSKSTSGGTAALGCLVKDYFPEPVTVSWNSGALTSGVHTFPAVLQSSGLYSLSSVVTVPSSSLGTQTYICNVNHKPSNTKVDKRVEPKSVDKTHTCPPCPAPEFEGGPSVFLFPPKPKDTLMISRTPEVTCVVVDVSHEDPEVKFNWYVDGVEVHNAKTKPREEQYNSTYRVVSVLTVLHQDWLNGKEYKCKVSNKALPASIEKTISKAKGQPREPQVYTLPPCREEMTKNQVSLWCLVKGFYPSDIAVEWESNGQPENNYKTTPPVLDSDGSFFLYSKLTVDKSRWQQGNVFSCSVMHEALHNHYTQKSLSLSPGK
anti-EGFR light chain: QSALTQPRSVSGSPGQSVTISCTGTSSDVGGYNYVSWYQQHPGKAPKLMIYDVSKRPSGVPDRFSGSKSGNTASLTISGLQAEDEADYYCSSYTSSDTLEIFGGGTKLTVLGQPKAAPSVTLFPPCSEELQANKATLVCLISDFYPGAVTVAWKADSSPVKAGVETTTPSKQSNNKYAASSYLSLTPEQWKSHRSYSCQVTHEGSTVEKTVAPTEVS
anti-cMET heavy chain: QVQLVQSGAEVKKPGASVKVSCKASGYTFTDYYIHWVRQATGQGLEWMGWMNPNSGNTGYAQKFQGRVTMTRDTSISTAYMELSSLRSEDTAVYYCARGQGYTHSWGQGTMVTVSSASTKGPSVFPLAPSSKSTSGGTAALGCLVKDYFPEPVTVSWNSGALTSGVHTFPAVLQSSGLYSLSSVVTVPSSSLGTQTYICNVNHKPSNTKVDKRVEPKSCDKTHTCPPCPAPEFEGGPSVFLFPPKPKDTLMISRTPEVTCVVVDVSHEDPEVKFNWYVDGVEVHNAKTKPREEQYNSTYRVVSVLTVLHQDWLNGKEYKCKVSNKALPASIEKTISKAKGQPREPQVCTLPPSREEMTKNQVSLSCAVKGFYPSDIAVEWESNGQPENNYKTTPPVLDSDGSFFLVSKLTVDKSRWQQGNVFSCSVMHEALHNHYTQKSLSLSPGK
anti-cMET light chain: DIQMTQSPSTLSASVGDRVTITCRASEGIYHWLAWYQQKPGKAPKLLIYKASSLASGVPSRFSGSGSGTEFTLTISSLQPDDFATYYCQQYSNYPPTFGGGTKLEIKRTVAAPSVFIFPPSDEQLKSGTASVVCLLNNFYPREAKVQWKVDNALQSGNSQESVTEQDSKDSTYSLSSTLTLSKADYEKHKVYACEVTHQGLSSPVTKSFNRGEC
notes: also called RAA22/B09-TM

binding result [2]: binds
B7: ABF-46 (antibody, V domains shown)
VH: EVKLVESGGGLVQPGGSLRLSCATSGFTFTDYYMSWVRQPPGKALEWLGFIRNKANGYTTEYSASVKGRFTISRDNSQSILYLQMDTLRAEDSATYYCARDNWFAYWGQGTLVTVSA
VL: DILMTQSPSSLTVSAGEKVTMSCKSSQSLLASGNQNNYLAWHQQKPGRSPKMLIIWASTRVSGVPDRFIGSGSGTDFTLTINSVQAEDLAVYYCQQSYSAPLTFGAGTKLELK
